Test results taken from patent US20250333520A1 (SYNTHEKINE, published 2025).

T1: Fc fused hCD122 (monovalent) (human, UniProt P14784 27-240, limits assumed)
T1 construct: described only as Fc fused, monovalent
T1 sequence (looked up): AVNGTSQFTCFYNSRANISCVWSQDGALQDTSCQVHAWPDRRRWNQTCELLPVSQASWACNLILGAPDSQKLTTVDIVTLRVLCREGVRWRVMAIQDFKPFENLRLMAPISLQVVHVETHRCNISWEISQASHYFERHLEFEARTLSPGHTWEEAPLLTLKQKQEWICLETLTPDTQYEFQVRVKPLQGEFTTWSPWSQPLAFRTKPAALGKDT

T2: Fc fused hCD132 (monovalent) (human, UniProt P31785 23-262, limits assumed)
T2 construct: described only as Fc fused, monovalent
T2 sequence (looked up): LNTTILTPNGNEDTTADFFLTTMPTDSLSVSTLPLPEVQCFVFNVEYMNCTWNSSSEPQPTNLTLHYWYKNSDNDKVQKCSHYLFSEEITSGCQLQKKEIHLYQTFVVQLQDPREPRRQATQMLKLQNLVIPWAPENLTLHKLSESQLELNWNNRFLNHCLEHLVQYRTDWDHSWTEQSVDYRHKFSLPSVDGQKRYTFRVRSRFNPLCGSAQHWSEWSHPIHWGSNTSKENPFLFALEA

B1: DR638(DR229-DR587) (bispecific antibody)
chain: QVQLQESGGGLVQPGGSLRLSCTASGFSFSSYPMTWARQAPGKGLEWVSTIASDGGSTAYAASVEGRFTISRDNAKSTLYLQLNSLKTEDTAMYYCTKGYGDGTPAPGQGTQVTVSSGGGSQVQLQESGGGSVQVGGSLRLSCATSGDTKSIRCMGWFRQTPGKEREGIAAIDREGFATYADSVYDRFTIAQDNAQNTLYLEMNALKPEDTAMYYCAAQNMCRVVRGAMTGVDYWGKGTQVTVSSASHHHHHH
notes: DR229 VHH - GGGS - DR587 VHH - ASHHHHHH; also called anti-IL2Rb/g VHH2 DR638; non-PEGylated DR638
B2: DR638-PEG40K2a (bispecific antibody)
chain: B1 chain
modifications: one 40 KDa branched polyethylene glycol (mono-PEGylated, coupled with sodium cyanoborohydride at pH ~6.3; residue not stated)
notes: also called PEGylated DR638
B3: DR736(DR588-DR231) (bispecific antibody)
chain: QVQLQESGGGSVQVGGSLKLSCAASGYTYSSYYCMGWFRQAPGKEREGVAAIDSDGSTSYADSVKGRFTISQDDAKNTLYLQMNSLKPEDTAMYYCAASYEVVDCYPSGYGQDYWGKGTQVTVSSGGGSQVQLQESGGGSVQAGGSLRLSCTASGFTFDDREMNWYRQAPGNECELVSTISSDGSTYYADSVKGRFTISQDNAKNTVYLQMDSVKPEDTAVYYCAADFMIAIQAPGAGCWGQGTQVTVSSASHHHHHH
notes: DR588 VHH - GGGS - DR231 VHH - ASHHHHHH; also called anti-IL2Rb/g VHH2 DR736; non-PEGylated DR736

biological target: T1, Fc fused hCD122 (monovalent); experiment: SPR, VHH dimer in the mobile phase, Fc fused hCD122 immobilized
Protocol: (§1) The affinity of the non-PEGylated and the PEGylated forms of DR638 and DR736 prepared in substantial accordance with the foregoing were evaluated by surface plasmon resonance with the VHH dimer molecule in the mobile phase and an immobilized Fc fused hCD122 and hCD132 monovalent and bivalent hCD122/hCD132 Fc construct.

With B1 as the binder, how does the Kd read?
The Kd was less than 0.5 nM.

Which Kd does the source give for B2 here?
Its Kd is roughly 1.1 nM.

How did the Kd turn out when B3 was run?
The Kd was roughly 21 nM.

biological target: T2, Fc fused hCD132 (monovalent); experiment: SPR, VHH dimer in the mobile phase, Fc fused hCD132 immobilized
Protocol: as §1

How did the Kd turn out when B1 was run?
The Kd was roughly 0.5 nM.

Which Kd does the source give for B2 here?
Its Kd is roughly 16.3 nM.

Which Kd does the source give for B3 here?
Its Kd is roughly 6.5 nM.
